# Measurements: US20030044418A1 (TEXAS A AND M UNIVERSITY SYSTEM UNIVERSITY, published 2003)
# No end group written: not given here.
# B1: fibrinopeptide B (peptide)
# peptide: QGVNDNEEGFFSAR
# notes: Bought from Bachem; also called FpB; FpB (1-14)
# B2: γ chain of Fg (ligand)
# chain: YVATRDNCCILDERFGSYCPTTCGIADFLSTYQTKVDKDLQSLEDILHQVENKTSEVKQLIKAIQLTYNPDESSKPNMIDAATLKSRKMLEEIMKYEASILTHDSSIRYLQEIYNSNNQKIVNLKEKVAQLEAQCQEPCKDTVQIHDITGKDCQDIANKGAKQSGLYFIKPLKANQQFLVYCEIDGSGNGWTVFQKRLDGSVDFKKNWIQYKEGFGHLSPTGTTEFWLGNEKIHLISTQSAIPYALRVELEDWNGRTSTADYAMFKVGPEADKYRLTYAYFAGGDAGDAFDGFDFGDDPSDKFFTSHNGMQFSTWDNDNDKFEGNCAEQDGSGWWMNKCHAGHLNGVYYQGGTYSKASTPNGYDNGIIWATWKTRWYSMKKTTMKIIPFNRLTIGEGQQHHLGGAKQAGDV
# notes: Chain of native Fg on a Western ligand blot
# B3: rβ(1-341) (ligand)
# chain: QGVNDNEEGFFSARGHRPLDKKREEAPSLRPAPPPISGGGYRARPAKAAATQKKVERKAPDAGGCLHADPDLGVLCPTGCQLQEALLQQERPIRNSVDELNNNVEAVSQTSSSSFQYMYLLKDLWQKRQKQVKDNENVVNEYSSELEKHQLYIDETVNSNIPTNLRVLRSILENLRSKIQKLESDVSAQMEYCRTPCTVSCNIPVVSGKECEEIIRKGGETSEMYLIQPDSSVKPYRVYCDMNTENGGWTVIQNRQDGSVDFGRKWDPYKQGFGNVATNTDGKNYCGLPGEYWLGNDKISQLTRMGPTELLIEMEDWKGDKVKAHYGGFTVQNEANKYQIS
# notes: range 1-341; Expressed in E. coli; whole cell lysate on the blot; also called recombinant truncate encompassing residues 1-341; not shown: N-terminal His-tag or GST fusion
# B4: rβ(1-195) (ligand)
# chain: QGVNDNEEGFFSARGHRPLDKKREEAPSLRPAPPPISGGGYRARPAKAAATQKKVERKAPDAGGCLHADPDLGVLCPTGCQLQEALLQQERPIRNSVDELNNNVEAVSQTSSSSFQYMYLLKDLWQKRQKQVKDNENVVNEYSSELEKHQLYIDETVNSNIPTNLRVLRSILENLRSKIQKLESDVSAQMEYCRT
# notes: range 1-195; Expressed in E. coli; whole cell lysate on the blot; also called recombinant truncate encompassing residues 1-195; not shown: N-terminal His-tag or GST fusion
# B5: rβ(25-195) (ligand)
# chain: EAPSLRPAPPPISGGGYRARPAKAAATQKKVERKAPDAGGCLHADPDLGVLCPTGCQLQEALLQQERPIRNSVDELNNNVEAVSQTSSSSFQYMYLLKDLWQKRQKQVKDNENVVNEYSSELEKHQLYIDETVNSNIPTNLRVLRSILENLRSKIQKLESDVSAQMEYCRT
# notes: range 25-195; Expressed in E. coli; whole cell lysate on the blot; The text says it lacks the N-terminal 25 residues although the name begins at 25; not shown: N-terminal His-tag or GST fusion
# B6: fluorescein-labeled β1-25 peptide (peptide)
# peptide: QGVNDNEEGFFSARGHRPLDKKREE
# modifications: ends and bridges not checked; also: fluorescein label, position not given here
# notes: used at 10 nM in fluorescence polarization; also called fluorescein-labeled N-terminal Bβ chain peptide β1-25; labeled peptide
# B7: peptide β6-20 (peptide)
# peptide: NEEGFFSARGHRPLD
# notes: Synthetic peptide made in the inventors' laboratory
# B8: native Bβ chain of fibrinogen (ligand)
# chain: QGVNDNEEGFFSARGHRPLDKKREEAPSLRPAPPPISGGGYRARPAKAAATQKKVERKAPDAGGCLHADPDLGVLCPTGCQLQEALLQQERPIRNSVDELNNNVEAVSQTSSSSFQYMYLLKDLWQKRQKQVKDNENVVNEYSSELEKHQLYIDETVNSNIPTNLRVLRSILENLRSKIQKLESDVSAQMEYCRTPCTVSCNIPVVSGKECEEIIRKGGETSEMYLIQPDSSVKPYRVYCDMNTENGGWTVIQNRQDGSVDFGRKWDPYKQGFGNVATNTDGKNYCGLPGEYWLGNDKISQLTRMGPTELLIEMEDWKGDKVKAHYGGFTVQNEANKYQISVNKYRGTAGNALMDGASQLMGENRTMTIHNGMFFSTYDRDNDGWLTSDPRKQCSKEDGGGWWYNRCHAANPNGRYYWGGQYTWDMAKHGTDDGVVWMNWKGSWYSMRKMSMKIRPFFPQQ
# notes: Chain of native Fg on a Western ligand blot; also called Fg Bβ chain
# B9: rβ(25-95) (ligand)
# chain: EAPSLRPAPPPISGGGYRARPAKAAATQKKVERKAPDAGGCLHADPDLGVLCPTGCQLQEALLQQERPIRN
# notes: range 25-95; Expressed in E. coli; whole cell lysate on the blot; The text says it lacks the N-terminal 25 residues although the name begins at 25; not shown: N-terminal His-tag or GST fusion
# B10: rβ(1-95) (ligand)
# chain: QGVNDNEEGFFSARGHRPLDKKREEAPSLRPAPPPISGGGYRARPAKAAATQKKVERKAPDAGGCLHADPDLGVLCPTGCQLQEALLQQERPIRN
# notes: range 1-95; Expressed in E. coli; whole cell lysate on the blot; also called recombinant truncate encompassing residues 1-95; not shown: N-terminal His-tag or GST fusion
# B11: rβ(1-220) (ligand)
# chain: QGVNDNEEGFFSARGHRPLDKKREEAPSLRPAPPPISGGGYRARPAKAAATQKKVERKAPDAGGCLHADPDLGVLCPTGCQLQEALLQQERPIRNSVDELNNNVEAVSQTSSSSFQYMYLLKDLWQKRQKQVKDNENVVNEYSSELEKHQLYIDETVNSNIPTNLRVLRSILENLRSKIQKLESDVSAQMEYCRTPCTVSCNIPVVSGKECEEIIRKGGE
# notes: range 1-220; Expressed in E. coli; whole cell lysate on the blot; also called recombinant truncate encompassing residues 1-220; not shown: N-terminal His-tag or GST fusion
# B12: peptide β1-25 (peptide)
# peptide: QGVNDNEEGFFSARGHRPLDKKREE
# modifications: ends and bridges not checked
# notes: Synthetic peptide (Research Genetics); also called unlabeled β1-25; synthetic 25 amino acid peptide representing the N-terminus of the Fg Bβ chain
# Assays:
# rSdrG(50-597) [1] = molecular target: T1, rSdrG(50-597) (Staphylococcus epidermidis K28, UniProt Q9KI13 50-597); assay: inhibition ELISA, peptide varied, 50 nM rSdrG(50-597), Fg-coated wells; reference β1-25
# T1 construct: Used biotin labeled in the Western ligand blots and in the ELISAs on protease-treated Fg; also called recombinant SdrG A-region; recombinant form of the N-terminal A-region of SdrG
# T1 sequence: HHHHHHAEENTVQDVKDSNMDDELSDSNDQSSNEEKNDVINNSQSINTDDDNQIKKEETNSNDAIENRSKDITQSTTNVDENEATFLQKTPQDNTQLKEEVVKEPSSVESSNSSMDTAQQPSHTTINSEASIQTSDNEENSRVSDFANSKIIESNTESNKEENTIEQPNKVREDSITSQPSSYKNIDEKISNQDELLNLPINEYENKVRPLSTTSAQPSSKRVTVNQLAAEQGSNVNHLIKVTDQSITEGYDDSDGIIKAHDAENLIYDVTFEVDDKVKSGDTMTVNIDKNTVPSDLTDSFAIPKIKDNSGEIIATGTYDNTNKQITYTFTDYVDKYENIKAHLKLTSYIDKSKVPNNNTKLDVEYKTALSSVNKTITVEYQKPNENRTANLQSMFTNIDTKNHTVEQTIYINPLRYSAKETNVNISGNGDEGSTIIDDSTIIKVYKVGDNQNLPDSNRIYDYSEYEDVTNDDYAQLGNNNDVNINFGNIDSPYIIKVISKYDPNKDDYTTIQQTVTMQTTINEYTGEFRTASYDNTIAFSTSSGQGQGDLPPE
# rSdrG(50-597) [2] = molecular target: T1, rSdrG(50-597); assay: Western ligand blot, biotin labeled rSdrG(50-597)
# rSdrG(50-597) [3] = molecular target: T1, rSdrG(50-597); assay: Western ligand blot of E. coli lysates, biotin labeled rSdrG(50-597) 0.5 µM
# rSdrG(50-597) [4] = molecular target: T1, rSdrG(50-597); assay: inhibition ELISA, peptide varied, 50 nM rSdrG(50-597), Fg-coated wells
# rSdrG(50-597) [5] = molecular target: T1, rSdrG(50-597); assay: fluorescence polarization, increasing rSdrG(50-597) with 10 nM fluorescein-labeled β1-25, three experiments
# rSdrG(50-597) [6] = molecular target: T1, rSdrG(50-597); assay: Western ligand blot
binder,measurement,setting,value
B1,fold less active than the synthetic peptide β1-25 as inhibitor,rSdrG(50-597) [1],10 fold
B2,binding result,rSdrG(50-597) [2],no binding
B3,binding result,rSdrG(50-597) [3],binds
B4,binding result,rSdrG(50-597) [3],binds
NEEGFFSARGHRPLDKKREE (Synthetic peptide (Research Genetics)) [peptide β6-25],binding result,rSdrG(50-597) [4],binds
B5,binding result,rSdrG(50-597) [2],no binding (tested: 0.5 µM)
B6,Kd,rSdrG(50-597) [5],0.14 µM
B7,binding result,rSdrG(50-597) [4],binds
B8,binding result,rSdrG(50-597) [6],binds
B9,binding result,rSdrG(50-597) [2],no binding (tested: 0.5 µM)
B10,binding result,rSdrG(50-597) [3],binds
B11,binding result,rSdrG(50-597) [3],binds
B12,binding result,rSdrG(50-597) [4],binds
"QGVNDNEEGFFSARGHRPLD (ends and bridges not checked, Synthetic peptide (Research Genetics)) [peptide β1-20]",binding result,rSdrG(50-597) [4],binds
